B1: cysteine tRNA ligase from archaea (Q8U227) (enzyme, P. furiosus, UniProt Q8U227 1-477, looked up)
chain: MLKVYNTLTKQKEEFKPLREGEVKMYVCGPTVYDYPHLGHARTYIAFDVIRRYLEHKGYTVLMVMNFTDIDDKIIKRARETGEDPKELAERFIKIFLEDMEALKVKPADIYPRVTDHIDDIIEFIGKLKEKGYAYEGSDGIYFEVKKFPEYGKLSGVKIEDLQKGARVEPGEGKKNPEDFALWKKAKPGEPKWDSPWGEGRPGWHIECSVMSSKYLGESFDIHGGGNDLIFPHHENEIAQSEACFGHEWVKYWLHTGFVMVKGEKMSKSLGNFVTIRELLKRYEPEVIRFFVLQKHYRSPLEYTEEGLQHAKNNLQRLYNTLENIRVALRNAEISYTWGELEFKTYEIIREGKRKFYEAMDDDFNTAEALKAVFEVANAINKYLTEANKPKESILRKALEFFKIVSEVFGVFEDYFREETKEREESEKLIELLVEVRKQLRKEKRYELADMIREELKKLGIQLEDRGSETTWKRIIT
B2: Q8U0N8, uncharacterized protein of unknown function from Pyrococcus furiosus (natural protein, UniProt Q8U0N8 1-392, looked up)
chain: MSESINNITKPKERRDFVVMAGMRKDGTIDFIKVYALNEKLAIEVLEAFLKENNIHPSDFIVIQRGYEDVKDKKAITTRSEEELSAMLGRLGLRLVSNGVLYTDGIDKLYQITAISRELFESLQKEKREIFEDVQEKITFNFSKVDLPEKYVKKLRLLELMEDTIIFNMAELEIPNLLKAIVEGTVLIPRFLEKEDLIIRIFDEELHEYRGSYFDKVLIKPPIIHWDFYLDSLEDFSFKKVEESIYIAPLFLRATGGFLILTEPPEDLVKTLLKLKKRGEVRTILEGKRITIPINFTLIVDTRHPERYAGLKFPIRINLPPLDDETFLKVLETNLGITPPTEIVRIFPPDYKTFLGVELIKNLFEKLKLTEKGKDEVSLLKEAATIITGGTP

How the values were obtained:
mass photometry = target: the molecule itself; assay: mass photometry
cryo-EM structure = target: the molecule itself; assay: cryo-EM structure

Protein	stoichiometry N (mass photometry)	stoichiometry N (cryo-EM structure)
B1	2	–
B2	–	6
